Laboratory results reported in US20240132624A1 (Ablynx, published 2024).

Columns and labels:
human FcRn/b2M [1] = target: T1, human FcRn/b2M (human, UniProt P61769 21-119, biotinylated); assay: SPR pH 6.0; pH 6.0; off-rate of periplasmic extract, human FcRn
T1 construct: bought recombinant biotinylated protein (ACRO FCM-H82W4 or Immunitrack ITF01); also called hFcRn; hFcRn/hb2M
Procedure: (§1) All kinetic measurements have been performed on ProteOn XPR36 (BioRad Laboratories, Inc.), MASS-2 (Sierra sensors, Gmbh) or SPR-32 (Bruker Corporation). […] The phytip purified periplasmic extracts were diluted 1:10 in running buffer (CPA+150 mM NaCl+0.005% Tw20 at pH 5.5, pH 6.0 or pH 7.4) and injected over the ligand surfaces (association: 120 s at 45 μL/min; dissociation: 600s-3600 s at 45 μL/min). Experiments were carried out at 25° C.

cyno FcRn/b2M [2] = target: T2, cyno FcRn/b2M (cyno, UniProt Q8SPV9 24-297; Q8SPW0 21-119, biotinylated); assay: SPR pH 6.0; pH 6.0; off-rate of periplasmic extract, cyno FcRn
T2 construct: bought recombinant biotinylated protein (Immunitrack ITF05 or ACRO FCM-C82W5); also called cFcRn; cFcRn/cb2M
Procedure: as §1

human serum albumin [3] = target: T3, human serum albumin (human, UniProt P02768 25-609); assay: SPR pH 6.0
T3 construct: also called HSA
Procedure: (§2) The affinity of the purified, multivalent ISVD constructs for human and mouse serum albumin (HSA and MSA, respectively) was determined on the ProteOn XPR36 (BioRad Laboratories, Inc.) instrument. […] The ISVD constructs were injected at 6 different concentrations (between 1 and 500 nM) and allowed to associate for 120 s at 45 μL/min and dissociate for 600s-3600s at 45 μL/min. Evaluation of the sensorgrams was based on the 1:1 Langmuir dissociation model simultaneously fitting on and off-rates.

mouse serum albumin [4] = target: T4, mouse serum albumin (mouse, UniProt P07724 25-608); assay: SPR pH 6.0
T4 construct: also called MSA
Procedure: as §2

human serum albumin [5] = target: T3, human serum albumin; assay: SPR pH 7.4
Procedure: as §2

mouse serum albumin [6] = target: T4, mouse serum albumin; assay: SPR pH 7.4
Procedure: as §2

human FcRn/b2M [7] = target: T1, human FcRn/b2M; assay: SPR pH 6.0
Procedure: (§3) The affinity of the purified, multivalent ISVD constructs for human and cyno FcRn was determined on the MASS-2 (Sierra sensors, Gmbh) instrument, hFcRn/hb2M and cFcRn/cb2M was captured on a Biotin-tag Capture Chip or a High Capacity Amine Chip (pre-immobilized with neutravidin). The ISVD constructs were injected at 6 different concentrations (between 1 and 4000 nM) and allowed to associate for 120 s at 45 μL/min and dissociate for 600 s-3600 s at 45 μL/min. […] Evaluation of the sensorgrams was based on the 1:1 Langmuir dissociation model simultaneously fitting on and off-rates.

cyno FcRn/b2M [8] = target: T2, cyno FcRn/b2M; assay: SPR pH 6.0
Procedure: as §3

human FcRn/b2M [9] = target: T1, human FcRn/b2M; assay: SPR pH 7.4
Procedure: as §3

cyno FcRn/b2M [10] = target: T2, cyno FcRn/b2M; assay: SPR pH 7.4
Procedure: as §3

cyno FcRn/b2M [11] = target: T2, cyno FcRn/b2M; assay: SPR pH 7.4; remark: listed apart in the source
human FcRn/b2M [12] = target: T1, human FcRn/b2M; assay: SPR pH 6.0; remark: listed apart in the source
human FcRn/b2M [13] = target: T1, human FcRn/b2M; assay: SPR pH 6.0; remark: listed apart in the source
cyno FcRn/b2M [14] = target: T2, cyno FcRn/b2M; assay: SPR pH 6.0; remark: listed apart in the source
cyno FcRn/b2M [15] = target: T2, cyno FcRn/b2M; assay: SPR; pH 7.4 vs pH 6.0
human FcRn/b2M [16] = target: T1, human FcRn/b2M; assay: SPR pH 7.4; remark: listed apart in the source
human FcRn/b2M [17] = target: T1, human FcRn/b2M; assay: SPR; pH 7.4 vs pH 6.0
human FcRn/b2M [18] = target: T1, human FcRn/b2M; assay: SPR pH 6.0; pH 6.0; human FcRn
Procedure: as §3

human serum albumin [19] = target: T3, human serum albumin; assay: SPR pH 6.0; remark: listed apart in the source
Procedure: as §2

mouse serum albumin [20] = target: T4, mouse serum albumin; assay: SPR pH 6.0; remark: listed apart in the source
Procedure: as §2

human serum albumin [21] = target: T3, human serum albumin; assay: SPR pH 7.4; remark: listed apart in the source
Procedure: as §2

mouse serum albumin [22] = target: T4, mouse serum albumin; assay: SPR pH 7.4; remark: listed apart in the source
Procedure: as §2

cyno FcRn/b2M [23] = target: T2, cyno FcRn/b2M; assay: SPR pH 6.0; pH 6.0; cyno FcRn
Procedure: as §3

T4 sequence (P07724 25-608 limits assumed): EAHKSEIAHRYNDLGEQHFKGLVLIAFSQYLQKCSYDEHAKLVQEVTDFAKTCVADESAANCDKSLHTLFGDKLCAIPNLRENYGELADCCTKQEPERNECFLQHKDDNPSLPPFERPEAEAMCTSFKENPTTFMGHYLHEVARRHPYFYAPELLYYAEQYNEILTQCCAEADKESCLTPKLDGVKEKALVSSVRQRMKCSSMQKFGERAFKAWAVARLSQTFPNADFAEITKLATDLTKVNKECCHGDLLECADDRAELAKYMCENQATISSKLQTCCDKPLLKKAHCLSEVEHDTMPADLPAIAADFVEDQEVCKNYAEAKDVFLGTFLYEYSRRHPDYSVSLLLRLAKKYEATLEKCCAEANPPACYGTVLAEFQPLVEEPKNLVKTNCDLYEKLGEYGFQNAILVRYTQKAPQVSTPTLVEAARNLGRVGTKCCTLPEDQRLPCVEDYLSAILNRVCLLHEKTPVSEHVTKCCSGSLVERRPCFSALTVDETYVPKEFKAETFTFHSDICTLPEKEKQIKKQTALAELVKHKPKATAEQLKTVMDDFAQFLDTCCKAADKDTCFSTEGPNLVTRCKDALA
T2 sequence (Q8SPV9 24-297 limits assumed, chain 1 of 2): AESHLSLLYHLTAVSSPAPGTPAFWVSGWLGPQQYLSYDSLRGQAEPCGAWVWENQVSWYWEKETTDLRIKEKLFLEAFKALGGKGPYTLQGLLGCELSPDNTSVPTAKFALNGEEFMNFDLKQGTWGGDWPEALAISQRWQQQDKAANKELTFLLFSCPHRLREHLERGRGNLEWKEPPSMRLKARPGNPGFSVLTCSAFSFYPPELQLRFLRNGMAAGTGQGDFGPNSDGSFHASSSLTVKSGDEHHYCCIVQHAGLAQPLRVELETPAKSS
T2 sequence (Q8SPW0 21-119 limits assumed, chain 2 of 2): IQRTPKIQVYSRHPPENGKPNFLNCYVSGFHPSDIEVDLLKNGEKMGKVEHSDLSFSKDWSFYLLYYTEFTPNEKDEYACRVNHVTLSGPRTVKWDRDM

Kd (cyno FcRn/b2M [11]) [nM]	koff (human FcRn/b2M [12]) [s⁻¹]	Kd (human FcRn/b2M [13]) [nM]	Kd (cyno FcRn/b2M [14]) [nM]	KD ratio pH 7.4/6.0 (cyno FcRn/b2M [15])	Kd (human FcRn/b2M [16]) [nM]	KD ratio pH 7.4/6.0 (human FcRn/b2M [17])	Binder	other results
							T0263018B11 T96E (VHH, name in Kabat numbering, FLAG3-His6 tagged) VHH: EVQLVESGGGVVQPGGSLRLSCAASGFTFSSYAMYWVRQAPGKGLEWVSAISSGGGSTDYADSVKGRFTISRDNSKNTLYLQMNSLRPEDTALYYCAADELYTSLTWYSYWGQGTLVTVSS	koff (human FcRn/b2M [1]): 0.012 s⁻¹; koff (cyno FcRn/b2M [2]): 0.0093 s⁻¹
							T026301266 (other, tetravalent ISVD construct; also called X-FcRn-Y-ALB23002) VHH 1: EVQLVESGGGVVQPGGSLRLSCAASGFTFSSYAMYWVRQAPGKGLEWVSAISSGGGSTDYADSVKGRFTISRDNSKNTLYLQMNSLRPEDTALYYCAADTLYTSLTWYSYWGQGTLVTVSS VHH 2: EVQLVESGGGVVQPGGSLRLSCAASGFTFRSFGMSWVRQAPGKGPEWVSSISGSGSDTLYADSVKGRFTISRDNSKNTLYLQMNSLRPEDTALYYCTIGGSLSRSSQGTLVTVSSA	Kd (human serum albumin [3]): 12 nM; koff (mouse serum albumin [4]): 0.053 s⁻¹; Kd (human serum albumin [5]): 8.6 nM; koff (mouse serum albumin [6]): 0.048 s⁻¹; Kd (human FcRn/b2M [7]): 41 nM; Kd (cyno FcRn/b2M [8]): 26 nM; Kd (human FcRn/b2M [9]): 1600 nM; Kd (cyno FcRn/b2M [10]): 880 nM
5900	0.0065	120	76	78			T026301079 (VHH, name in Kabat numbering, tagless) VHH: EVQLVESGGGVVQPGGSLRLSCAASGFTFSSYAMYWVRQAPGKGLEWVSAISQGGGSTDYADSVKGRFTISRDNSKNTLYLQMNSLRPEDTALYYCAADTLYTSLTSYSYWGQGTLVTVSS	
2400	0.00046	9.4	3.8	632	3700	394	T026301064 (VHH, name in Kabat numbering, tagless) VHH: EVQLVESGGGVVQPGGSLRLSCAASGFTFSSYDMYWVRQAPGKGLEWVSAISQGGGSTDYADSVKGRFTISRDNSKNTLYLQMNSLRPEDTALYYCAADTLYTSLTWYSYWGQGTLVTVSS	
5000	0.0032	77	48	104	5400	70	T026301111 (VHH, name in Kabat numbering, tagless) VHH: EVQLVESGGGVVQPGGSLRLSCAASGFTFSEYAMYWVRQAPGKGLEWVSAISQGGGSTDYADSVKGRFTISRDNSKNTLYLQMNSLRPEDTALYYCAADTLYTSLTWYSYWGQGTLVTVSS	
							T026301195 (bispecific antibody, name in Kabat numbering, bispecific ISVD construct; also called T0263018B11(E1D, S31E, A33D, W100cS)-35GS-ALB23002-A) DVQLVESGGGVVQPGGSLRLSCAASGFTFSEYDMYWVRQAPGKGLEWVSAISSGGGSTDYADSVKGRFTISRDNSKNTLYLQMNSLRPEDTALYYCAADTLYTSLTSYSYWGQGTLVTVSSGGGGSGGGGSGGGGSGGGGSGGGGSGGGGSGGGGSEVQLVESGGGVVQPGGSLRLSCAASGFTFRSFGMSWVRQAPGKGPEWVSSISGSGSDTLYADSVKGRFTISRDNSKNTLYLQMNSLRPEDTALYYCTIGGSLSRSSQGTLVTVSSA	Kd (human FcRn/b2M [18]): 680 nM; Kd (human serum albumin [19]): 6.1 nM; Kd (mouse serum albumin [20]): 77 nM; Kd (human serum albumin [21]): 13 nM; Kd (mouse serum albumin [22]): 120 nM; Kd (cyno FcRn/b2M [23]): 670 nM
